From patent US20170022281A1 (AbbVie / Abbott, published 2017)

Assays:
[1] = target: T1, cyno PRLR (Biacore antigen) (cyno, UniProt A0A2K5WXK1 25-234); experiment: SPR Biacore
T1 construct: also called cyPRLR
T1 sequence: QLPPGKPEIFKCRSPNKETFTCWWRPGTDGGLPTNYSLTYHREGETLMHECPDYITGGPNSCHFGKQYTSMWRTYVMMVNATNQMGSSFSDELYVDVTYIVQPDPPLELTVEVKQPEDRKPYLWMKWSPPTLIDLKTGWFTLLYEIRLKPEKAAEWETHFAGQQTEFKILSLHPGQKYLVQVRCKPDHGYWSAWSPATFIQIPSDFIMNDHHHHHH
In short: (§1)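 Association rate, dissociation rate and dissociation constant were measured by surface plasmon resonance on a Biacore instrument. PRLR antigen was tested at 600 nM, 66.67 nM and 7.41 nM, a 3-point, 9-fold dilution series. Constants came from a 1:1 binding model fit (local Rmax, mass-transport term included) in Biacore T200 Evaluation Software.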

[2] = target: T2, murine PRLR (Biacore antigen) (murine, UniProt Q08501 20-229, limits assumed); experiment: SPR Biacore
T2 construct: also called muPRLR
T2 sequence (looked up): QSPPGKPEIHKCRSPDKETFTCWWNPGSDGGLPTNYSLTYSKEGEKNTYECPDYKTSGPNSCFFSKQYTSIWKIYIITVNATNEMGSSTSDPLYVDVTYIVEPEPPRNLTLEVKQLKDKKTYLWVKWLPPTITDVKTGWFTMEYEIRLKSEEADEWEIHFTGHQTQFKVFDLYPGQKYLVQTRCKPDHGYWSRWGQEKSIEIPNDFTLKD
In short: as §1

[3] = target: T3, cyno PRLR ECD-his6 protein (cyno); experiment: ELISA on ECD
T3 chain: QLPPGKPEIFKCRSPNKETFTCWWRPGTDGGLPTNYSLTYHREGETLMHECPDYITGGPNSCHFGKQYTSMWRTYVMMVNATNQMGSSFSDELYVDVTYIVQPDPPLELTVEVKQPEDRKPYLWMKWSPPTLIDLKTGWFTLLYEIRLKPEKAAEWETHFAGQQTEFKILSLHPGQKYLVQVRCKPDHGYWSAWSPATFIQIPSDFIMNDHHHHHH
Method: (§2) Plates were blocked for 1 hour with Superblock (Pierce) and washed (3×) with wash buffer (lx PBS (pH 7.4), 0.05% Tween 20). ECD proteins were bound to the appropriate antibody (1 hour) in binding buffer (wash buffer plus 10% Superblock), washed (3×, wash buffer), and then incubated with serial dilutions of antibodies (1 hour) in binding buffer. After washing (3×, wash buffer), secondary antibodies conjugated to HRP were bound (1 hour) in binding buffer, washed (3×, wash buffer), and incubated with TMB substrate (Pierce) to develop signal for 3-5 minutes, stopped with 2N H₂SO₄ and scanned at […]. Curves were fit with GraphPad 5 (Prizm) and EC50's were determined with curve fitting function of GraphPad 5.

[4] = target: T4, rat PRLR ECD-Fc fusion protein (rat, UniProt P05710 20-229); experiment: ELISA on ECD
T4 construct: extracellular domain; not shown: Fc region (captured by goat anti-human Fc)
T4 sequence (looked up): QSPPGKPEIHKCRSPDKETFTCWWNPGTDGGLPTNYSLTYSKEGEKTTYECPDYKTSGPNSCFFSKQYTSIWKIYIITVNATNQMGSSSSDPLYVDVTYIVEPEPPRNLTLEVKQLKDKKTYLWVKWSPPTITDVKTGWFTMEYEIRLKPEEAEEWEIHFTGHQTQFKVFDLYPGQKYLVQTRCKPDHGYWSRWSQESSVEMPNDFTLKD
Method: as §2

[5] = target: T5, mouse PRLR ECD-Fc fusion protein (mouse, UniProt Q08501 20-229); experiment: ELISA on ECD
T5 construct: extracellular domain; not shown: Fc region (captured by goat anti-human Fc)
T5 sequence (looked up): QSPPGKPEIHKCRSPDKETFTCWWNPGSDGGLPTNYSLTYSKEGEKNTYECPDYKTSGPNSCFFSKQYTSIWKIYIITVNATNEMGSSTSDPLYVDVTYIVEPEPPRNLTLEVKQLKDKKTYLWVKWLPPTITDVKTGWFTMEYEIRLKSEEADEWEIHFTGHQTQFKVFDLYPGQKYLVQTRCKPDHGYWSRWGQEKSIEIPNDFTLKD
Method: as §2

human PRLR on cells = target: T6, human PRLR on cells (human, UniProt P16471 25-622); experiment: cell-based or functional assay
T6 sequence: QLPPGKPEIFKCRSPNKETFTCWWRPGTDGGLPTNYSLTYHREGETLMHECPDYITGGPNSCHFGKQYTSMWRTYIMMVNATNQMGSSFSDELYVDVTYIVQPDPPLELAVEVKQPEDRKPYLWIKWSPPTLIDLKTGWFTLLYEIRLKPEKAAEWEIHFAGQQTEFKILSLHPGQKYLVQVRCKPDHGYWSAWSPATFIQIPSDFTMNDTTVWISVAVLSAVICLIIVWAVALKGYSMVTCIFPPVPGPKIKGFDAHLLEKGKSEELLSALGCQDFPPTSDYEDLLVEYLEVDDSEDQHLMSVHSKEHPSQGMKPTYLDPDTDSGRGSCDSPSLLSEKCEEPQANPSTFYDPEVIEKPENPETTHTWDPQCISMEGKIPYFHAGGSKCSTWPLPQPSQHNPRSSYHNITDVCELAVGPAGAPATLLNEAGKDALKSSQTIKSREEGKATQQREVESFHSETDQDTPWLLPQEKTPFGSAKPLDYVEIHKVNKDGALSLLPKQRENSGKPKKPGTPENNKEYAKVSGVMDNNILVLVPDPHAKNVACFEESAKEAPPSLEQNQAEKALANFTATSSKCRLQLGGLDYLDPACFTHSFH

[6] = target: cyno PRLR on Baf3-cyPRLR cells (cyno); experiment: cell-based or functional assay
[7] = target: T7, human PRLR (Biacore antigen) (human, UniProt P16471 25-234, limits assumed); experiment: SPR Biacore
T7 construct: The construct injected over captured antibody is not described (a soluble form is likely); also called huPRLR
T7 sequence: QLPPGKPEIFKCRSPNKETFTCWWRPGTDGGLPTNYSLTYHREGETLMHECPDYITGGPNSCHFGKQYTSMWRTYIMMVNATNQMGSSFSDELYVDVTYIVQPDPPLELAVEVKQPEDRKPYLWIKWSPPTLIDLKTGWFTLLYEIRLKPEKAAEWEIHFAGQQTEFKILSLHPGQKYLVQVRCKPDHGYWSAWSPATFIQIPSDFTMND
In short: as §1

[8] = target: T8, human PRLR ECD-Fc fusion protein (human, UniProt P16471 25-233); experiment: ELISA on ECD
T8 construct: not shown: Fc region (captured by goat anti-human Fc)
T8 sequence: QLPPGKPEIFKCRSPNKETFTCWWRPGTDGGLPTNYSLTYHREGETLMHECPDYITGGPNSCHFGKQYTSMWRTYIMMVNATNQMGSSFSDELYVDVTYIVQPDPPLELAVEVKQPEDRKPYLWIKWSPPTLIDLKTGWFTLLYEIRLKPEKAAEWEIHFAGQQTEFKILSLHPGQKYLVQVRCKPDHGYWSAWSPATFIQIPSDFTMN
Method: as §2

[9] = target: T9, mouse PRLR on Baf3-mPRLR cells (mouse, UniProt Q08501 20-608); experiment: cell-based or functional assay
T9 sequence (looked up): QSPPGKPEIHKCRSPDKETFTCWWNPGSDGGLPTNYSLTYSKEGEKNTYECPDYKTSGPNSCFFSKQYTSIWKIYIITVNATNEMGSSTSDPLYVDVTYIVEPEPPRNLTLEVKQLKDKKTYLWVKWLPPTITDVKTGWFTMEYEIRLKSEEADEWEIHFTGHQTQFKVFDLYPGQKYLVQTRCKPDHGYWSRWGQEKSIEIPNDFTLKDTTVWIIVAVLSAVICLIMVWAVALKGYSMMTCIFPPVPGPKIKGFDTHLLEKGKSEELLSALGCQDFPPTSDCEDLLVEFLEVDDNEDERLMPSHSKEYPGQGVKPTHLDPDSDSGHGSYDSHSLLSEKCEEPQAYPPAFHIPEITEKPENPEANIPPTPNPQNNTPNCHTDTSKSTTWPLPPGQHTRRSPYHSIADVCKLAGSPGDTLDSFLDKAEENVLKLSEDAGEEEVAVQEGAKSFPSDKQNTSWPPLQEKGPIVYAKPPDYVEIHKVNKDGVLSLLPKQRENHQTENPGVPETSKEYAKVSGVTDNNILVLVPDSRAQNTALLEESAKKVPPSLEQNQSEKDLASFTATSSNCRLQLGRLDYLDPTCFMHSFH

Row | Binder | Kd [1] [nM] | koff [1] [s⁻¹] | kon [1] [M⁻¹ s⁻¹] | Kd [2] [nM] | koff [2] [s⁻¹] | kon [2] [M⁻¹ s⁻¹] | EC50 [3] [nM] | EC50 [4] [nM] | EC50 [5] [nM] | Baf3-hPRLR proliferation IC50 (human PRLR on cells) [µg/mL] | Baf3-cyPRLR proliferation IC50 [6] [µg/mL] | Kd [7] [nM] | koff [7] [s⁻¹] | kon [7] [M⁻¹ s⁻¹] | EC50 [8] [nM] | Baf3-mPRLR proliferation IC50 [9] [µg/mL]
1 | Ab28 (antibody, human IgG1, kappa, humanized from Ab5; G1; also called Ab2 HC.1 and Ab2 LC.1b) heavy: not shown light: DVVMTQTPLSLSVTPGQPASISCRSSQRLVHSNGNTYLHWYLQKPGQSPQLLIYKVSNRFSGVPDRFSGSGSGTDFTLKISRVEAEDVGVYYCSQSTHVPWTFGGGTKVEIKRTVAAPSVFIFPPSDEQLKSGTASVVCLLNNFYPREAKVQWKVDNALQSGNSQESVTEQDSKDSTYSLSSTLTLSKADYEKHKVYACEVTHQGLSSPVTKSFNRGEC | 1.97 | 0.000619 | 315000 | 52 | 0.00606 | 117000 | 0.0965 | 0.416 | 0.292 | 0.22 | 0.31 |  |  |  |  | 
2 | Ab26 (antibody, human IgG1, kappa, humanized from Ab5; G1; also called Ab HC.1 and Ab2 LC.1) heavy: not shown light: DIVMTQTPLSLSVTPGQPASISCRSSQRLVHSNGNTYLHWYLQKPGQSPQLLIYKVSNRFSGVPDRFSGSGSGTDFTLKISRVEAEDVGVYYCSQSTHVPWTFGGGTKVEIKRTVAAPSVFIFPPSDEQLKSGTASVVCLLNNFYPREAKVQWKVDNALQSGNSQESVTEQDSKDSTYSLSSTLTLSKADYEKHKVYACEVTHQGLSSPVTKSFNRGEC |  |  |  |  |  |  | 0.151 | 0.164 | 0.201 | 0.23 | 0.25 |  |  |  |  | 
3 | Ab27 (antibody, human IgG1, kappa, V domains shown, humanized from Ab5; G1; also called Ab2 HC.1 and Ab2 LC.1a) VH: EVQLVQSGAEVKKPGSSVKVSCKASGYTFTSFWMHWVRQAPGQGLEWMGVIDPSDTYTNYNQKFKGRVTITADESTSTAYMELSSLRSEDTAVYYCARGDYSNWFTYWGQGTLVTVSS VL: DVVMTQTPLSLSVTPGQPASISCRSSQRLVHSNGNTYLHWYLQKPGQSPQLLIYKVSNRFSGVPDRFSGSGSGTDFTLKISRVEAEDVGVYFCSQSTHVPWTFGGGTKVEIKR | 1.56 | 0.00052 | 333000 | 38.3 | 0.00512 | 134000 | 0.102 | 0.125 | 0.185 | 0.16 | 0.22 | 1.25 | 0.000443 | 356000 | 0.17 | 
4 | Ab29 (antibody, human IgG1, kappa, humanized from Ab5; G1; also called Ab HC.1a and Ab2 LC.1) heavy: not shown light: DIVMTQTPLSLSVTPGQPASISCRSSQRLVHSNGNTYLHWYLQKPGQSPQLLIYKVSNRFSGVPDRFSGSGSGTDFTLKISRVEAEDVGVYYCSQSTHVPWTFGGGTKVEIKRTVAAPSVFIFPPSDEQLKSGTASVVCLLNNFYPREAKVQWKVDNALQSGNSQESVTEQDSKDSTYSLSSTLTLSKADYEKHKVYACEVTHQGLSSPVTKSFNRGEC | 2.24 | 0.000675 | 301000 | 53 | 0.00634 | 120000 | 0.153 | 0.689 | 0.238 | 0.15 | 0.23 | 1.79 | 0.00056 | 313000 | 0.269 | 
5 | Ab31 (antibody, human IgG1, kappa, humanized from Ab5; G1; also called Ab2 HC.1a and Ab2 LC.1b) heavy: not shown light: DVVMTQTPLSLSVTPGQPASISCRSSQRLVHSNGNTYLHWYLQKPGQSPQLLIYKVSNRFSGVPDRFSGSGSGTDFTLKISRVEAEDVGVYYCSQSTHVPWTFGGGTKVEIKRTVAAPSVFIFPPSDEQLKSGTASVVCLLNNFYPREAKVQWKVDNALQSGNSQESVTEQDSKDSTYSLSSTLTLSKADYEKHKVYACEVTHQGLSSPVTKSFNRGEC | 2.08 | 0.000643 | 310000 | 55.7 | 0.00682 | 122000 | 0.256 | 0.718 | 0.333 | 0.17 | 0.39 | 1.67 | 0.000537 | 322000 | 0.453 | 
6 | Ab46 (antibody, human IgG1, kappa, V domains shown, humanized from Ab8; G1; also called Ab3 HC.1 and Ab3 LC.1b) VH: EVQLVQSGAEVKKPGASVKVSCKASGYTFTDYNIHWVRQAPGQGLEWMGYIYPNNDGTGYNQKFKSRVTMTTDTSTSTAYMELRSLRSDDTAVYYCARGDGNYVGDMDYWGQGTTVTVSS VL: DIQMTQSPSSLSASVGDRVTITCRASENIYSYLAWYQQKPGKAPKLLVYNAKTLAEGVPSRFSGSGSGTDFTLTISSLQPEDFATYYCQHHYATPFTFGQGTKLEIKR |  |  |  |  |  |  | 0.0814 |  | 0.568 | 0.3 | 1.72 |  |  |  | 0.0626 | > 30
7 | Ab45 (antibody, human IgG1, kappa, V domains shown, humanized from Ab8; G1; also called Ab3 HC.1 and Ab3 LC.1a) VH: EVQLVQSGAEVKKPGASVKVSCKASGYTFTDYNIHWVRQAPGQGLEWMGYIYPNNDGTGYNQKFKSRVTMTTDTSTSTAYMELRSLRSDDTAVYYCARGDGNYVGDMDYWGQGTTVTVSS VL: DIQMTQSPSSLSASVGDRVTITCRASENIYSYLAWYQQKPGKPPKLLVYNAKTLAEGVPSRFSGSGSGTDFTLTISSLQPEDFATYYCQHHYATPFTFGQGTKLEIKR |  |  |  |  |  |  | 0.201 |  | 0.978 | 0.31 | 2.24 |  |  |  | 0.0684 | > 30
